Data as given in patent US11994512B2, “Single-cell genomic methods to generate ex vivo cell systems that recapitulate in vivo biology with improved fidelity” (Massachusetts Institute of Technology, priority 2018, dated 2024).

B1: Q9JJ78 (protein, UniProt Q9JJ78 1-330, looked up)
chain: MEGINNFKTPNKSEKRKSVLCSTPCVNIPASPFMQKLGFGTGVSVYLMKRSPRGLSHSPWAVKKISLLCDDHYRTVYQKRLTDEAKILKNLNHPNIIGYRAFTEASDGSLCLAMEYGGEKSLNDLIEERNKDSGSPFPAAVILRVALHMARGLKYLHQEKKLLHGDIKSSNVVIKGDFETIKICDVGVSLPLDENMTVTDPEACYIGTEPWKPKEALEENGIITDKADVFAFGLTLWEMMTLCIPHVNLPDDDVDEDATFDESDFDDEAYYAALGTRPSINMEELDDSYQKAIELFCVCTNEDPKDRPSAAHIVEALELDGQCCGLSSKH
modifications: full-length
B2: Q9DCT8 (protein, UniProt Q9DCT8 1-208, looked up)
chain: MASKCPKCDKTVYFAEKVSSLGKDWHKFCLKCERCNKTLTPGGHAEHDGKPFCHKPCYATLFGPKGVNIGGAGSYIYEKPQTEAPQVTGPIEVPVVRTEERKTSGPPKGPSKASSVTTFTGEPNMCPRCNKRVYFAEKVTSLGKDWHRPCLRCERCSKTLTPGGHAEHDGQPYCHKPCYGILFGPKGVNTGAVGSYIYDKDPEGTVQP
modifications: full-length
B3: Q9DA97 (protein, UniProt Q9DA97 1-430, looked up)
chain: MAEKPTNTSVPIPGSEDPQKENIRCLSTLGHFGFECLPTQLVNKSIQKGFSFNILCVGETGIGKTTLINTLFNTNLKETKSSHFYSKVGLTVKTYELLERNIPLRLTVVKTVGYGDQINKEASYQPVVDYLDAQFEAYLQEELKIKRSLADYHDSRIHVCLYFITPTGHSLKSLDLLTMKSIDRRVNIIPLIAKADSLSKNDLQRFKNNIMSELNSNGIQIYQFQVDDEASAQVNSSGLLPFAVVGSMEEVKVGKRMVRGRHYPWGVLQEVENENHCDFVKLRDLLLSTNMEDLKDQTHTQHYECYRSNRLQKLGFSDTGPDNRPVSFQEMYEAKRREFHNQCQKEEEELKQTFMQRVKEKELTFKDAEKELQDKFEHLKRIQQEEILKLEEERRKLEEQIIDFYKMKAASESAQAQVCTNIKKDKDRKK
modifications: full-length
B4: Q9D8W7 (protein, UniProt Q9D8W7 1-154, looked up)
chain: MASVSTHGNQEKSPHLPPLSKQSLLFCPKSKLHIHRGEIAKIIRECQEESFWKRALPFSLISMLVTQGLVHQGYLAANPRFGSLPKVALAGLLGFGLGKASYIRVCQSKFHSFEDQLRGAGFGPEHNRHCLLTCEDCKTRRGLSEKAGSQPSAS
modifications: full-length
B5: Q9DBG7 (protein, UniProt Q9DBG7 1-636, looked up)
chain: MLDFFTIFSKGGLVLWCFQGVSDSCTGPVNALIRSVLLQERGGNNSFTHEALTLKYKLDNQFELVFVVGFQKILTLTYVDKLIDDVHRLFRDKYRTEIQQQSALSLLNGTFDFQNDFLRLLREAEESSKIRAPTTMKKFEDSEKAKKPVRSMIETRGEKTKEKAKNNKKRGAKKEGSDGTLATSKTAPAEKSGLSAGPENGELSKEELIRRKREEFIQKHGKGLDKSSKSTKSDTPKEKGKKAPRVWELGGCANKEVLDYSTPTTNGTPEAALSEDINLIRGTGPGGQLQDLDCSSSDDEGATQNTKPSATKGTLGGMFGMLKGLVGSKSLSREDMESVLDKMRDHLIAKNVAADIAVQLCESVANKLEGKVMGTFSTVTSTVKQALQESLVQILQPQRRVDMLRDIMDAQRRQRPYVVTFCGVNGVGKSTNLAKISFWLLENGFSVLIAACDTFRAGAVEQLRTHTRRLTALHPPEKHGGRTMVQLFEKGYGKDAAGIAMEAIAFARNQGFDVVLVDTAGRMQDNAPLMTALAKLITVNTPDLVLFVGEALVGNEAVDQLVKFNRALADHSMAQTPRLIDGIVLTKFDTIDDKVGAAISMTYITSKPIVFVGTGQTYCDLRSLNAKAVVAALMKA
modifications: full-length
B6: Q9ERZ0 (protein, UniProt Q9ERZ0 1-503, looked up)
chain: MDMGKGRPRLKLPQMPEAHPQKSCAPDIIGSWSLRNREQLRKRKAEAQGRQTSQWLLGEQKKRKYQRTGKGNKRGRKRQGNVEQKAEPWSQTERERVQEVLVSAEEETEHPGNSATEALPLVPSPTKAVPADQCSEAHQESIQCQERAIQNHSQTHLSPTTCQGIAVLQHSPKMCQDMAEPEVFSPNMCQETAVPQTYPPKALEEMAAAEPLSPKMCQETTVSPNHSSKVPQDMAGPEALSPNMCQEPTVPQEHTLKMCHDVARPEVLSPKTHQEMAVPKAFPCVTPGDAAGLEGCAPKALPQSDVAEGCPLDTTPTSVTPEQTTSDPDLGMAVTEGFFSEARECTVSEGVSTKTHQEAVEPEFISHETYKEFTVPIVSSQKTIQESPEPEQYSPETCQPIPGPENYSLETCHEMSGPEDLSIKTCQDREEPKHSLPEGAQKVGGAQGQDADAQDSENAGAFSQDFTEMEEENKADQDPEAPASPQGSQETCPENGIYSSALF
modifications: full-length
B7: Q9DD24 (protein, UniProt Q9DD24 1-104, looked up)
chain: MKPCQKMEGNLEKEDEPKPEEEPKPEEKPEEGQEPEEEEKSEETFRERLIRSLQDFQEDIHNRHLSSDDLFRDVEELDEIRKVRNKLIVTRWKANRSHPYPYLM
modifications: full-length
B8: Q9ERH4 (protein, UniProt Q9ERH4 1-427, looked up)
chain: MTVPSAEELDSFKYSDLQNLAKRLGLRANMKADKLLKALKAHLNPETRKENKNQDENQFSTDETEIHVSSEEQAETESGGHVTKTRRRRRKKHKTIHGIPTSQTLLQDHLEMKGTDSSNFQNQENQENQDPRDTAEVPSLPEQRPEDGNAASSGEGEVNDIKDSKKPLEKRSLCTDEFSKLGNNKRTSATTPNFKKLHEARFKKMESIDEYIMRKKKHLKEHSSLNELKLDKKGIVTPVPPRGRLSVPCTPARQQCPQGHSATKMNVRFSAATKDNEHKCSLTKTPARKSPHVTAPGSASKGQAVFRTPKSKATERTSIAVITPFKLMTEATQTPSSSKKPVFDLKASLSRPLNYKPHKGKLKPWGQAKENNSLNERVSRVTFHRKTYKQPHLQTREERWKRQEQERKEKKEKLLEARRNLGVTKAQ
modifications: full-length
B9: Q9JIB0 (protein, UniProt Q9JIB0 1-185, looked up)
chain: MEPNRNCPLFGGAFSAILPTGAIDVSDLRPVPDNQEVFCHPVTDQSLIIELLELQAHVQGEAAARYHFEDVGRVQGARAVHVLSVQPLCLENLSLRGCCQDAWSLSGKQQVAKENQQVAKDVTLHQALLRLPQYQTDLLLTFNQPPCHSRSLGPENLSCPPWSLSNFEQLVTSLTLHDPNLFGPQ
modifications: full-length
B10: Q9JHT5 (protein, UniProt Q9JHT5 1-344, looked up)
chain: MAAGCCGVKKQKLSSSPPSGSGGGGGASSSSHCSGESQCRAGELGLGGAGTRLNGLGGLSGGGGSGGGGGCPLSPPQGCGGGGGGGGGGGSGSGGGGISLSPPLSCGVGTLLSTPAAATASSPSSSSSSPGSRKMVVSAEMCCFCFDVLYCHLYGYQQPRTPRFTNEPYPLFVTWKIGRDKRLRGCIGTFSAMNLHSGLREYTLTSALKDSRFPPMTRDELPRLFCSVSLLTNFEDVCDYLDWEVGVHGIRIEFINEKGSKRTATYLPEVAKEQGWDHIQTIDSLLRKGGYKAPITNEFRKTIKLTRYRSEKMTLSYAEYLAHRQHHHFQNGIGHPLPPYNHYS
modifications: full-length
B11: Q9D9Z1 (protein, UniProt Q9D9Z1 1-312, looked up)
chain: MAAPEAEAQETAFRTTGPPTDSEPRPFPPSSRKFPFESAAADSNEDWAVAAEHYLKGSGENGGWEQPAPGVQPSHPATMASAKTVCDAQPHSMPSCGLPADTQTRATSKLPVKSKEADLLRHLHPGGPEPDVTKVTKSRRENGQVKAAETASRRNLRNSYKPFNKQKPEEELKDKNELLEAVNKQLHQKLTETQGELKDLTQKVELLEKFQDNCLALLESKGLNPGQETLASKQEPTTDHTDSMLLLETLKDELKVFNETAKKQMEELQALKVKLKLKEEESVQFLEQQTLCKDEASDFTIILEEMEQLLEM
modifications: full-length
B12: Q9EPC5 (protein, UniProt Q9EPC5 1-134, looked up)
chain: MPADLSGTWNLLSSDNFEGYMLALGIDFATRKIAKLLKPQKVIEQNGDSFTIQTCSSLRNYLVKFKVGEEFEEDNKGLDNRKCTSLVTWENDKLTCVQRGEKKNRGWSHWIEGDQLHLEMFCEGQVCKQTFQRA
modifications: full-length

Tested on: intracellular proteome of ENR+CD and ENR organoids
Assay: LC-MS/MS TMT proteomics of ENR+CD versus ENR organoids
Type: cell-based, C57BL/6 mice
Conditions: for Average logFC: ENR+CD versus ENR organoids, sample pairs in aggregate (n=4, 2 technical replicates from two biological donors); for M1-1 Log2 Median Normalized / M1-2 Log2 Median Normalized / M2-1 Log2 Median Normalized / M2-2 Log2 Median Normalized: protein abundance ratio ENR+CD versus ENR organoids, LC-MS/MS TMT proteomics; for M1-1 Log2 Median Normalized: sample pair M1-1; for M1-2 Log2 Median Normalized: sample pair M1-2; for M2-1 Log2 Median Normalized: sample pair M2-1; for M2-2 Log2 Median Normalized: sample pair M2-2; for change: up = enriched in ENR+CD, down = enriched in ENR, FDR<0.05 and log fold change cut-off

Molecule | Average logFC | M1-1 Log2 Median Normalized | M1-2 Log2 Median Normalized | M2-1 Log2 Median Normalized | M2-2 Log2 Median Normalized | change
B1 | −1.167 | −1.497 | −0.959 | −0.7695 | −1.442 | down
B2 | 1.386 | 1.983 | 1.517 | 0.9975 | 1.047 | up
B3 | −1.147 | −0.99 | −1.148 | −0.7465 | −2.635 | down
B4 | −1.397 | −0.573 | −1.182 | −1.9045 | −1.927 | down
B5 | 1.192 | 1.346 | 1.118 | 0.9025 | 1.401 | up
B6 | −1.361 | −1.833 | −1.41 | −1.0155 | −1.185 | down
B7 | 1.262 | 1.266 | 0.97 | 1.6605 | 1.153 | up
B8 | −1.264 | −1.354 | −0.911 | −1.2565 | −1.536 | down
B9 | −1.426 | −1.2 | −1.555 | −1.6355 | −1.315 | down
B10 | 1.464 | 1.463 | 1.751 | 1.5015 | 0.056 | up
B11 | −1.13 | −1.473 | −0.579 | −0.8635 | −1.605 | down
B12 | −2.14 | −2.063 | −2.064 | −2.2365 | −2.196 | down
